Consider one molecule from publication PMC6126647.

The data set has as its target MmCPDII (class II CPD photolyase) (UniProt Q8PYK9 1-464). Nature of the data set: X-ray crystallography (2.7 A); oxidized FAD; dark, unrepaired CPD; Co-crystallization: protein in 10 mM Tris-HCl pH 8.0, 100 mM NaCl with 1.25x dsDNA (in 100 mM Tris-HCl pH 8.0, 100 mM NaCl), 30 min in dark; mixed 1:1 with 0.1.

B1: 14-mer duplex with natural phosphodiester-linked cis-syn CPD (PDM DNA) (dsDNA)
DNA 1: ATCGGCTTCGCGCA
DNA 2: TGCGCGAAGCCGAT
modifications: cis-syn cyclobutane thymine dimer T7<>T8 in strand 1, natural intra-lesion phosphodiester
As for B1, the binding result is on record as “binds”.
